# Test results published in a protein production outcome set (Wang et al. 2014).
# Assay: label from the status in PepcDB records
row,Sequence,protein production
1,MDLGPEQIFGAPCRKCKEKCEGFELHFWKKTCRNCKCGQEEHGILLSTEEDRKVGRIIEDGKDTNQIAKLKADEIPMDKTSETVLNKPEPEKKDDFTKTVSYEWVPSVQNKALTRQYMQMLPKEKQPVSGSEGAQYRKKQLAKQLPAHDQDPNKCHELSRKEAKEMRQFVKKYKNEALGVGDVRLPSEMNVQHYKGHNPATDRNTPTAVDFKDTSMEPKKPQYSCYSCKHAVKEGNPAIFAERAGYDKLWHPACFICTICGEILVDMIYFWKNGKLYCGRHYCDSEKPRCAGCDELIFSNEYTQAENKNWHLIHFCCFHCHNVLAGKIYVMVGSKPVCKSCYMKIHAVVCQGCHNAIDPEEQRVIYQNFSWHASTACFLCSCCSKCLLGKKFIRVEGMIFCSIECKNMMS,failed
2,MDLKTSYKGISLNPIYAGSSAVATVSENGKILATPVLDEINIIDLTPGSRKILHKISNEDEQEITALKLTPDGQYLTYVSQAQLLKIFHLKTGKVVRSMKISSPSYILDADSTSTLLAVGGTDGSIIVVDIENGYITHSFKGHGGTISSLKFYGQLNSKIWLLASGDTNGMVKVWDLVKRKCLHTLQEHTSAVRGLDIIEVPDNDEPSLNLLSGGRDDIINLWDFNMKKKCKLLKTLPVNQQVESCGFLKDGDGKRIIYTAGGDAIFQLIDSESGSVLKRTNKPIEELFIIGVLPILSNSQMFLVLSDQTLQLINVEEDLKNDEDTIQVTSSIAGNHGIIADMRYVGPELNKLALATNSPSLRIIPVPDLSGPEASLPLDVEIYEGHEDLLNSLDATEDGLWIATASKDNTAIVWRYNENSCKFDIYAKYIGHSAAVTAVGLPNIVSKGYPEFLLTASNDLTIKKWIIPKPTASMDVQIIKVSEYTRHAHEKDINALSVSPNDSIFATASYDKTCKIWNLENGELEATLANHKRGLWDVSFCQYDKLLATSSGDKTVKIWSLDTFSVMKTLEGHTNAVQRCSFINKQKQLISCGADGLIKIWDCSSGECLKTLDGHNNRLWALSTMNDGDMIVSADADGVFQFWKDCTEQEIEEEQEKAKLQVEQEQSLQNYMSKGDWTNAFLLAMTLDHPMRLFNVLKRALGESRSRQDTEEGKIEVIFNEELDQAISILNDEQLILLMKRCRDWNTNAKTHTIAQRTIRCILMHHNIAKLSEIPGMVKIVDAIIPYTQRHFTRVDNLVEQSYILDYALVEMDKLF,failed
3,MDLLAMNIPVSLQSKPPLWLLAELTYRCPLQCAYCSNPLDYAAVKQELSTDEWKDVFRQARAMGSVQLGFSGGEPLLRQDLSELIKYAHELGFYTNLITSGIGLTEQKIAEFSEAGLDHIQISFQASDPALSEILSGSRKAFQQKQAMALAVKKHRYPMVLNFVIHRFNIEQIDQIIELSLELNADYVELATCQFYGWAKLNQAALLPTPEQISYAQARVQAYRQYIDQHHLKTKLLLVAPDYYQERPKKCIGGWGQIFITVSPDGTVLPCQSAKDLPLEFPTIQDQSLKTIWNEAFAFNAFRGTDWMQEPCRSCPDKDKDLGGCRCQAYMLTKNMYATDPVCSKSPVHHQIVEARLQTQCSKPDISDLKLRNPQNSKLFFKRASDADSLL,failed
4,MDLLATRGDPVSDFSVGRVRGRHLAVPPIRHSAAPSNRHSEAPSSRARAADLDAIRLTGIAAVVVGHVWTSGPFTDALFAWHVPVFFILTGYLWKSGRTVRDEISRRSKTLLVPYVAWLAVLSVAFASVEYLRGGSLPVEALRNAVYGGAFAVRPYSAFWFVPVLFFTAVLFRWLERFPPWMAWIIAGLGLAASVFAGEVMAKTPLGIALAVPCLVFVLVGRALPAMVHRVRYKTAVGVGLVLAGVALTVGGVVQPLNMKDGDFGTVALSVVNASAISLGLILVFAALYRMVSPAVNRLTIQLASAGLVVVLTHAFFLYLLNTPASGSIFDAVVALAVPFALALLVLRSPLRRWLVG,failed
5,MDLLLKAALGAAVVVILAALAKTRNYYIAGLVPLFPTFALIAHYIVGKGRSLDDLKTTILFGMWSIIPYFVYLATLYVMVDRLRLEASLAVAAVAWLIAATILVSVWVRLHA,failed
6,MDLLQFLIDKNNVFIVAVAVVSGIMLMLPALRKGRAGAAVGTSEAIQMVNQRQAVWVDVRPTEQFQAGHIAQARSLPAADLEKKAGALPKNKPLIVVCEQGRDAARIAARLRSQGFAEVSVLEGGMRAWFAAGLPVTQKG,failed
7,MDLNFSKEEIAFRDEVRQFFKDNVPAKTRQKLIEGRHNTKEEMVEWYRILNKKGWAVTHWPKEYGGTGWSSVQHYIFNEELQAAPAPQPLAFGVSMVGPVIYTFGSEEQKKRFLPRIANVDDWWCQGFSEPGSGSDLASLKTKAEKKGDKWIINGQKTWTTLAQHADWIFCLCRTDPAAKKQEGISFILVDMKTKGITVRPIQTIDGGHEVNEVFFDDVEVPLENLVGQENKGWDYAKFLLGNERTGIARVGMSKERIRRIKQLAAQVESGGKPVIEDPKFRDKLAAVEIELKALELTQLRVVADEGKHGKGKPNPASSVLKIKGSEIQQATTELLMEVIGPFAAPYDVHGDDDSNETMDWTAQIAPGYFNNRKVSIYGGSNEIQRNIICKAVLGL,failed
8,MDLSVVVPTLNARDALLDALDALAAHAPAAEVVVANGPSVDGTSGTVRDHDAVDTLLELSERNLNAARNAGIAATNGTVVAFIGQDTHIQPGWTNAVADAIADGADAVTGPVHRTVEGGVTTESVDEATVSGRDVTFFDGANVAITRRALRALDGFDEALQTGAARDAAHRLAGMDRRVAWAPNACVLRTDADDVIHRLPEDADSSARGLKYRALAYRLTKNYGATAAITARVLRHAVGDAASVGGAVLRGDADLSTWVGAGLAVLPGLWRGSQAGLSARVADRTTTRNPNGVSTRMDRVHARHD,failed
9,MDLVEKVKELCLELEEENLAKAIERFITLTHGIEKTRGEAFAKASIYGFLEGILTTLKMKYSNEKIETLLNEVKTAREETEALLRKPRPPLLVDNDL,not failed
10,MDLWKLYQPGTPAAIVAWGQLGTAHAKTTYGLLRHSRLFKPVCVVAEHEGKMASDFVKPVRYDVPVVSSVEKAKEMGAEVLIIGVSNPGGYLEEQIATLVKKALSLGMDVISGLHFKISQQTEFLKIAHENGTRIIDIRIPPLELDVLRGGIYRKKIKVVGVFGTDCVVGKRTTAVQLWERALEKGIKAGFLATGQTGILIGADAGYVIDAVPADFVSGVVEKAVLKLEKTGKEIVFVEGQGALRHPAYGQVTLGLLYGSNPDVVFLVHDPSRDHFESFPEIPKKPDFEEERRLIETLSNAKVIGGVSLNGGFETDLPVYDPFNTDDLDEMLERAMVW,not failed
11,MDMGNQHPSISRLQEIQREVKAIEPQVVGFSGLSDDKNYKRLERILTKQLFEIDSVDTEGKGDIQQARKRAAQETERLLKELEQNA,not failed
12,MDMIKPDFQQIRRDKFRVEQMNDFPNTWTQQQHQNIRIPNNLDLIGILQNQISVPVQTDLYQDSAATFMNMPQSIHRDPQGPSNWRISDLSQPSTVNHGYDQAGIRPNNVADLLSDHFSSRNQILDRPLYVGRDSIPQSSMIRRSEVSCLDDNQKGCVTVACSGTGNEILRSSYDQGSSSGSYRGEFSFLPSLENQSVAHNASNWNHGPVNVTATSHTNSKKGFPLSLLSDIPPSRDVGNAAVLSTMNIHGPLGPFTGYASILKSSRFLEPAQKMLEEFCISYASKIISRSESTSMEDDDDDDDNLSGFSSSSEPLEPKNRLKKAKLLFLQEEVCKWYKLYNHQLQTVMSSFNTVAGLNTATPYISLALKRTSRSFKALRTAIAEHVKQISSHSSNGNNNNRFQKRQRSLIGNNVGFESQQQHIWRPQRGLPERAVAVLRAWLFDHFLHPYPTDSDKQMLATQTGLSRNQVSNWFINARVRLWKPMVEEIHTLETKAIKNADTSHNIEPSNRPNTVSSPSHEQTLTGLSGTKRSRLEYMDMVGFNRGNVSLTLELRRGVDNVIQTQTQDHQFGTGSQMFHDFVG,failed
13,MDMKAPIKVYMTKKLLGVKPSTSVQEASRLMMEFDVGSLVVINDDGNVVGFFTKSDIIRRVIVPGLPYDIPVERIMTRNLITANVNTPLGEVLRKMAEHRIKHILIEEEGKIVGIFTLSDLLEASRRRLETAISAE,not failed
14,MDMKKHGLSIGINRIESVFFVTLKAIGTLTHEDYLVITPMLEGALSQVDQPKVSLFLDATELDGWDLRAAWDDLKLGLKHKSEFERVAILGNKDWQEWAAKIGSWFIAGEIKYFEDEDDALKWLRY,not failed
15,MDNGDWGYMMTDPVTLNVGGHLYTTSLTTLTRYPDSMLGAMFGGDFPTARDPQGNYFIDRDGPLFRYVLNFLRTSELTLPLDFKEFDLLRKEADFYQIEPLIQCLNDPKPLYPMDTFEEVVELSSTRKLSKYSNPVAVIITQLTITTKVHSLLEGISNYFTKWNKHMMDTRDCQVSFTFGPCDYHQEVSLRVHLMEYITKQGFTIRNTRVHHMSERANENTVEHNWTFCRLARKTDD,failed
16,MDNKLPHYSRERLLGEGGMGKVYLAQDNQLQRQVAIKELTYQPKDDEVNHALKEARLLARVNHSNIIQIYNVHDEGDHISLVMEYFNSKTLTQFQQEAYTTLVQKLDLLQQLSAGLAAAHKNGVIHCDLKPSNILVNDQGQLKITDFGIALLASNESQNSEQTASNNPLQFGSLLFMSPEQIKLQAVDYRSDIFSFGIIAYQLMVGSHPFAYGNNGGSATDVAKRICEHTPEHAKNLMLNAPSALTDLLMEMLVKPLEQRTLTAEAIENRLKHIRTALLQAEISEQATMPLSSGSANIAGDDTGQYTQAVHTTLLSQNTQIVQPADNLQASWFKQNYKTVASIALLCLVMILFVGFYNTQEVETKQVVILKPTLADSSLMAPMQQDLVISAVEDALRQAVINTKNMYLISQREVNAITKEYPDDLNKLRQAVGASDIISTTLECDNSRCKVSFSRLVVNDNSSDNLSVKSEKNWLAPVDKFNAIFSTSQTQFASLFPEESEVNQSGLVQRPINENDYRNYIELYSQIKGQGEYSVESLTKLETLLTRSPYLYAAYGLFRETASNLYTDSRDEIHLKRLELVLQNSPPEYRYSVYHAIDSFFVAYKIKELDTAQQQIIEAKNKGASSFVLSELNAILFFSKGQYQKAADTFEEALVLRPSTTLLYNLAFSYWRMGDLSKAEDALNKMLEIIPGNYKAQQLQANIWLLQGKLELAITAYEKIVAALSNGRDLTNLSLAYALNKQYKKSLIYAKKAVDLSPKNRIRRLNLADIEFILGRVKSSNFNYKKVIDAPVDNNKYRYWLDIAQAQLQLNQQNLAIEALNKAKHLAPDNGEVAYTSALVYSVLGERVSAIFEVNKALANKVGSVWFNLPWFDSLCDDKEFELLMVKYNNQKRCRT,failed
17,MDNKVILVGGFHEIIELCEDNDIEIAGIIDNYLTNDTYWGYPIIGTDDKAKVLFETYKNVPVLITPDVPHVRYKLYHYYKSIGFQVASLISRDASISRSAIIGEGTIIQRGANLSSNIKIGQMVKVNTNANIMHDCLIGNYVTVAPNAVLLGKVEIDDKAYIGANATLLPSVKIGENVTVGAGSVVTKSVRLEHHHHHH,failed
18,MDNPKGIDGFTNLKEKDIATNENKLLRTITADKMIPAFLITPISSQIAGKVIAQVESDIFAHMGKAVLIPKGSKVIGYYSNNNKMGEYRLDIVWSRIITPHGINIMLTNAKGADIKGYNGLVGELIERNFQRYGVPLLLSTLTNGLLIGITSALNNRGNKEGATNFFGDYLLMQLMRQSGMGINQVVNQILRDKSKIAPIVVIREGSRVFISPNTDIFFPIPRENEVIAEFLK,failed
19,MDPERDALRIALYYALFSILWILSSDYLVALMFQPHVMVRLSVLKGSLFIILTSLLLYFLLKLYLRSLTDKERALRISEHKFRSLFMELPLGVVLMDTYGRILESNPAMGRFHGDSLDGMLIGEIHPDLEPGPDREFMVRMDGRWLRVVITRIEGGFLGIFEDLTDIKNSEEAARRSLEANRTLLAELHHRVKNNLQIISSLISIQSSKMPREHAEIMRSLQLRIKSIAVIHEMLLSSPESSSISFASYVSGLTGYLRDMYQSAAEFELDVPDVEFNIETAVPLGLIVGELVSNSLRHAFTDGGTIRISLEARDDGFILVVADNGGAFPITSAFRNQPASAWSLLRIW,failed
